Experimental data as given in patent US20070248589A1 (GOVERNMENT OF THE UNITED STATES OF AMERICA AS REPRESENTED …, published 2007).

T1: GST-SPATIAL(L) (Mus musculus, UniProt Q7TSD4)
T1 construct: made in house
T1 sequence (Q7TSD4 with tags, fused parts or gaps isoform Q7TSD4-6 limits assumed): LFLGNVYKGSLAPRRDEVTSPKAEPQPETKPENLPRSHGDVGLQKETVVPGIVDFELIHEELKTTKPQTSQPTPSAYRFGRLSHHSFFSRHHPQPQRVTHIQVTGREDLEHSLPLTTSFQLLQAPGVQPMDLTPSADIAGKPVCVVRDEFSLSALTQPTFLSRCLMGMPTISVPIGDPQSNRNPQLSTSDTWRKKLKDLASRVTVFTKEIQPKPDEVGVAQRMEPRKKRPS

T2: Uba3/AppBP1 protein complex (Mus musculus, UniProt Q8C878)
T2 construct: Myc-tagged, full-length mouse Uba3; host or cells: cell-free: TNT Coupled Reticulocyte Lysate System, 35S-methionine labelled
T2 sequence (Q8C878 22-462 V120X/V142X/I148X/P243X limits assumed): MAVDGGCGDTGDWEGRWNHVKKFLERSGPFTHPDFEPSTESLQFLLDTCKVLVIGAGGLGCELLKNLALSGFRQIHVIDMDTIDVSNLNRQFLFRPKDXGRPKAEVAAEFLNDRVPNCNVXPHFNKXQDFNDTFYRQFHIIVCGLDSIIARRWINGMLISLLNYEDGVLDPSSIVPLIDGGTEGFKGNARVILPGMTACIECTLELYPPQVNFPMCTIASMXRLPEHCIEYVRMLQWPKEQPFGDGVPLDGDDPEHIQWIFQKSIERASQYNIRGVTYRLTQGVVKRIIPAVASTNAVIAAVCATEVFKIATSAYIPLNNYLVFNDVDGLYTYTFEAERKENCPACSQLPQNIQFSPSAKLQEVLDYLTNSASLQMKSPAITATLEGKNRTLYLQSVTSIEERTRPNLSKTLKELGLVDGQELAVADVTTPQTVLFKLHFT


Legend:
GST-SPATIAL(L) = target: T1, GST-SPATIAL(L); test: GST pulldown assay with GST-SPATIAL long isoform; format: binding; settings: 35S-methionine labeled in vitro translated protein
Protocol: Eighteen cDNA clones identified in the yeast two-hybrid system were tested in an in vitro glutathione-S-transferase (GST) pulldown assay, as described in Ausubel et al., Current Protocols in Molecular Biology, Greene Publishing Associates, updated November 2003, Chapter 20, Analysis of Protein Interactions, Unit 20.2, Affinity Purification of Proteins Binding to GST Fusion Proteins.
Briefly, a GST-SPATIAL fusion construct was produced by cloning SPATIAL cDNA(s) into pGEx5X1 expression vector using standard molecular cloning techniques. GST or GST-SPATIAL fusion protein were expressed in 1-1000 ml bacterial cultures grown for 3-4 hours until OD600 reached 0.5. Then, plasmid expression was induced for 1.5-4 hours by the addition of ITPG to a final concentration of 0.11 mM. GST or GST-fusion proteins were purified using glutathione-Sepharose beads as described in Ausubel et al., Current Protocols in Molecular Biology, Greene Publishing Associates, updated November 2003, Chapter 20, Analysis of Protein Interactions, Unit 20.2, Affinity Purification of Proteins Binding to GST Fusion Proteins.
A coupled in vitro transcription and translation system (Promega) was used according to the manufacturer's instructions to produce radiolabeled protein from cDNAs to be tested. Radiolabeled proteins were mixed with either purified GST or GST-SPATIAL. Then, GST-containing protein complexes were purified by centrifugation from the reaction mixtures using glutathione-coated Sepharose beads. Bound proteins were eluted from the beads with SDS-PAGE loading buffer heated to 72-85° C., separated on polyacrylamide gels, and visualized by autoradiography. Specific interactions between GST-SPATIAL and in vitro translated proteins were indicated by the presence of a radiolabeled in vitro translated protein in the GST-SPATIAL-containing samples, but not in the GST-alone samples.
GST pulldown assays were performed as described in Example 9 using GST-SPATIAL(L) and GST-SPATIAL(S) and each of the Uba3 mutants described in this example.

293T cells = test: Uba3 co-transfection with SPATIAL-EGFP, growth arrest; format: cell-based, human; settings: transient over expression, 0.5, 2.5 or 4.5 μg/well Uba3 plasmid, FIG. 9
Protocol: To determine whether Uba3 is involved in SPATIAL mediated growth suppression, co-transfections were done using increasing amounts of an Uba3 expression vector with constant amounts of SPATIAL-EGFP or EGFP.
4×10^5 293T cells were transfected in 6 well plates using 5 μg of a mixture of plasmids. The plasmids used were pEGFP-N1 (0.5 μg/well), pEGFP-SPATIAL(L) (0.5 μg/well), pcDNA3.1 Myc/his M Uba3 (0.5, 2.5 or 4.5 μg/well) (pcDNA3.1 myc/His may be obtained from Invitrogen), and pWL-neo (4 or 2 μg/well). The plasmid pWL-neo (Stratagene) was used as a control plasmid to make sure that the total DNA in each transfection totaled 5 μg. Transfections were done using Lipofectamine 2000 using manufacturers instructions (Invitrogen).
Twenty four hours after transfection, the cells were trypsinized and re-plated onto 10 cm dishes and cultured for up to 6 days. The number of EGFP-positive cells were determine at 24, 36 and 144 hours after transfection by harvesting the cells, counting and FACS analysis to determine the percentage of EGFP-positive cells.

[1] = target: T2, Uba3/AppBP1 protein complex; test: GST pulldown and immunoprecipitation, Uba3 and AppBP1 interaction; format: binding; settings: FIG. 4
Protocol: To determine whether SPATIAL has an effect on the neddylation pathway, cDNAs for each of the components of the Nedd8 conjugation pathway were obtained from EST depositories (AppBP1, GenBank Accession No. BC00480; Uba3, GenBank Accession No. BC002002). These cDNAs were used to produce radiolabeled proteins by in vitro transcription and translation.
The effect of SPATIAL on the first step of the pathway, the interaction between Uba3 and AppBP1, was tested using a GST pulldown assay
In a typical GST pulldown assay, GST and GST-SPATIAL were prepared from transformed bacterial cultures as previously described (e.g., Ausubel et al., Current Protocols in Molecular Biology, Greene Publishing Associates, updated November 2003, Chapter 20, Analysis of Protein Interactions, Unit 20.2, Affinity Purification of Proteins Binding to GST Fusion Proteins). After purification, GST and GST-SPATIAL proteins were mixed with glutathione-sepharose beads and the mixtures were frozen in 200 μl aliquots. The amount of protein bound to the beads was quantitated using a colormetric assay (BCA assay; Pierce-Endogen).
Uba3 and AppBP1 were in vitro translated and ^35S-methionine labeled using 0.5 μg of the respective expression plasmids in a 50 μl reaction using TNT® Coupled Reticulocyte Lysate Systems (Promega) by following the manufacturer's instructions. […]

Row | interaction with GST-SPATIAL(L) (GST-SPATIAL(L)) | effect on Uba3 binding to AppBP1 [1] | Molecule | effect on growth inhibition of SPATIAL-EGFP transfected cells (293T cells)
1 | specifically bound | – | Uba3: catalytic subunit of NEDD8 activating enzyme, a 441-amino acid protein (SEQ ID NO: 6) (protein, listed as Mus musculus, (99)..(99) The ′Xaa′ at location 99 stands for Val.; (121)..(121) The ′Xaa′ at location 121 stands for Val.; (127)..(127) The ′Xaa′ at location 127 stands for Ile.; (222)..(222) The ′Xaa′ at location 222 stands for Pro.) MAVDGGCGDTGDWEGRWNHVKKFLERSGPFTHPDFEPSTESLQFLLDTCKVLVIGAGGLGCELLKNLALSGFRQIHVIDMDTIDVSNLNRQFLFRPKDXGRPKAEVAAEFLNDRVPNCNVXPHFNKXQDFNDTFYRQFHIIVCGLDSIIARRWINGMLISLLNYEDGVLDPSSIVPLIDGGTEGFKGNARVILPGMTACIECTLELYPPQVNFPMCTIASMXRLPEHCIEYVRMLQWPKEQPFGDGVPLDGDDPEHIQWIFQKSIERASQYNIRGVTYRLTQGVVKRIIPAVASTNAVIAAVCATEVFKIATSAYIPLNNYLVFNDVDGLYTYTFEAERKENCPACSQLPQNIQFSPSAKLQEVLDYLTNSASLQMKSPAITATLEGKNRTLYLQSVTSIEERTRPNLSKTLKELGLVDGQELAVADVTTPQTVLFKLHFT | overcomes the growth inhibition
2 | – | interferes with Uba3 binding to AppBP1 | GST-SPATIAL: glutathione-S-transferase SPATIAL fusion protein (protein, left off: a dimerising Fc or GST, glutathione-S-transferase SPATIAL fusion protein) LFLGNVYKGSLAPRRDEVTSPKAEPQPETKPENLPRSHGDVGLQKETVVPGIVDFELIHEELKTTKPQTSQPTPSAYRFGRLSHHSFFSRHHPQPQRVTHIQVTGREDLEHSLPLTTSFQLLQAPGVQPMDLTPSADIAGKPVCVVRDEFSLSALTQPTFLSRCLMGMPTISVPIGDPQSNRNPQLSTSDTWRKKLKDLASRVTVFTKEIQPKPDEVGVAQRMEPRKKRPS | –
